{"source": "paper doi:10.1101/144295", "about": "“Human PRDM9 can bind and activate promoters, and other zinc-finger proteins associate with reduced recombination in cis” (bioRxiv, 2017)", "proteins": {"B1": {"name": "full-length human PRDM9 (B allele), C-terminally tagged with HA or V5 (natural protein)", "chain": "not shown", "notes": "218 synonymous base changes in the zinc finger exon; An HA and a V5 version were made; The C-terminal cassette is linker-TwinStrep-linker-HA/V5-linker-P2A followed by YFP; vector pLENTI CMV/TO Puro DEST (Addgene plasmid # 17293); YFP probably separates at the P2A site (surmised); also called Human-HA; Human-V5; source: HEK293T, transfected (FuGENE-HD), in lysate; not shown: HA or V5, C-terminal, …"}}, "target": "the molecule itself", "experiment": "co-IP; competitive co-IP: HEK293T transfected with equimolar DNA of three constructs (one bait with one tag, Human and Chimp prey with the other tag); IP against the bait's tag, western blot against the prey's tag; replicated with reversed tags"}
{"protein": "B1", "values": [{"measurement": "fold more efficiently co-precipitated than the Chimp prey (Human bait)", "value": "> 2", "unit": "fold"}]}
